Test results published in the supplement of paper PMC10724198.
± gives the standard deviation of the averaged measurements.

tested on: Saccharomyces cerevisiae; assay: protein stability index of tFT-peptide fusion (C-terminal peptide) (PSI (0-1 scale)); higher = more stable (slower turnover); conditions: genetic background: wild type; temperature: 30 C
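Note: PSI is a weighted mean of sequencing reads over stability bins, variants kept only with over 10 reads, mCherry proximal and sfGFP distal, peptide attached via GGGS linker.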

Row | Sequence | protein stability index
1 | PYACQYVPCITT | 0.5904 ± 0.004
2 | PYPCPPRPSPPP | 0.76 ± 0.034
3 | PYPLSSLSPSRP | 0.702 ± 0.11
4 | PYPPSSLPLQPA | 0.654 ± 0.025
5 | PYPSPLPPAPTP | 0.748 ± 0.015
6 | PYQQVAESETKK | 0.717 ± 0.089
7 | PYVLGRDVVVLF | 0.7 ± 0.06
8 | PYWPLLLTNCQL | 0.734 ± 0.063
9 | QAIEAGPPEHGY | 0.677 ± 0.036
10 | QARHNMVYHEIV | 0.656 ± 0.029
11 | QARQMEIRRLQT | 0.628 ± 0.047
12 | QASEYNREQSGL | 0.6732 ± 0.00076
13 | QCNGDEKKKLYK | 0.609 ± 0.022
14 | QDECPRTTQGRV | 0.656 ± 0.04
15 | QDISESLLRLLR | 0.7119 ± 0.0019
16 | QDRATRPSHRTQ | 0.684 ± 0.03
17 | QEGGWKRTYDII | 0.678 ± 0.046
18 | QEKQDIIEDHTT | 0.655 ± 0.019
19 | QEPARPTGPGQS | 0.628 ± 0.019
20 | QESRRTTVEKQA | 0.638 ± 0.011
21 | QFMLLRWGFAIR | 0.544 ± 0.024
22 | QFTRSRSRRVRS | 0.6385 ± 0.0048
23 | QFVLWPSVLGLG | 0.648 ± 0.054

Row | Sequence | protein stability index
24 | QGDDNVVGAMNI | 0.628 ± 0.089
25 | QGKNAPERTIKQ | 0.631 ± 0.025
26 | QGKRQEEGERER | 0.68 ± 0.052
27 | QGVLRAEAVDKG | 0.622 ± 0.019
28 | QHALSAPRTILP | 0.654 ± 0.03
29 | QHFAKAIVQTTT | 0.679 ± 0.02
30 | QHHPRTTPHRPS | 0.714 ± 0.0097
31 | QHTDNLLTHLMG | 0.6551 ± 0.0028
32 | QIFPLRLTWSRR | 0.642 ± 0.029
33 | QIGTVDEWTQQA | 0.738 ± 0.12
34 | QIRNNKPYSPSK | 0.742 ± 0.0061
35 | QKEKKKTVKTKI | 0.723 ± 0.09
36 | QKKKDKKKQNRT | 0.666 ± 0.029
37 | QKKKHRTTGKTT | 0.655 ± 0.035
38 | QKKKKKRNDKTQ | 0.71 ± 0.049
39 | QKKKKKSKQRGP | 0.743 ± 0.034
40 | QKKKRTKNKNKR | 0.6556 ± 0.0053
41 | QKKTNKKTTRNE | 0.691 ± 0.013
42 | QKLGNNNAKDLM | 0.66 ± 0.062
43 | QKLKPRKESSKN | 0.698 ± 0.058
44 | QKSKSSYPESYV | 0.777 ± 0.062
45 | QKTKTKKIRKKK | 0.7014 ± 0.0018
46 | QLCNQHCKMISD | 0.662 ± 0.0082

Row | Sequence | protein stability index
47 | QLRDNQNTLLQE | 0.7138 ± 0.006
48 | QLYKLKNMKKKN | 0.675 ± 0.0085
49 | QMKKDIKPRPGE | 0.704 ± 0.037
50 | QNKTKRMQKTKA | 0.629 ± 0.047
51 | QNQKKHTRQQNQ | 0.722 ± 0.072
52 | QNQVERREFRFS | 0.701 ± 0.088
53 | QPPPDPPPPTPS | 0.592 ± 0.014
54 | QPRAKNFRNPCP | 0.661 ± 0.1
55 | QPSSYPEANRQG | 0.671 ± 0.028
56 | QPYTPHTAFPAQ | 0.696 ± 0.011
57 | QQGKWHTRRKKY | 0.659 ± 0.07
58 | QQKKPKKEKTTE | 0.6744 ± 0.0036
59 | QQKYKLIQLVII | 0.584 ± 0.017
60 | QQLILCLFSPFP | 0.655 ± 0.015
61 | QQMSLRKNQKVK | 0.7 ± 0.066
62 | QQVRHNVKRVVL | 0.7222 ± 0.0025
63 | QRLQVLIGYDRR | 0.691 ± 0.039
64 | QRPFKCMIKFNK | 0.67 ± 0.0078
65 | QRPGKKNGSGRP | 0.682 ± 0.031
66 | QSGQSELRVVPP | 0.72 ± 0.021
67 | QSPPRHPSPTAS | 0.683 ± 0.082
68 | QSRPRNMFRVIS | 0.5469 ± 0.0045
69 | QSSGGSDSVLFG | 0.738 ± 0.041

Row | Sequence | protein stability index
70 | QTKAGKRKEKRE | 0.72 ± 0.12
71 | QTMYFLRKEKEN | 0.696 ± 0.063
72 | QTNAEPPSERVT | 0.655 ± 0.083
73 | QTNYSNQYKEKY | 0.713 ± 0.11
74 | QTPRYRGLFSAL | 0.639 ± 0.038
75 | QTRKRESPAMVT | 0.639 ± 0.02
76 | QTRQPKRSDEEK | 0.686 ± 0.014
77 | QTRRQKDAEHPR | 0.714 ± 0.023
78 | QTSWLKKTIKRE | 0.678 ± 0.072
79 | QVCSRKKCDSRK | 0.567 ± 0.069
80 | QVDITASPDRTT | 0.745 ± 0.056
81 | QVRPKGDPRARV | 0.644 ± 0.1
82 | QVVAAGRPWGVF | 0.677 ± 0.011
83 | QVVEANNPALSF | 0.647 ± 0.02
84 | QWGGEGWILGGV | 0.698 ± 0.031
85 | QWGRGGRHVTDI | 0.669 ± 0.038
86 | QWPCPTLSLRFS | 0.632 ± 0.015
87 | QWPNPEVLVRST | 0.70875 ± 0.00048
88 | QYDHGSSPRRFE | 0.7005 ± 0.0041
89 | QYILGLLLVPLG | 0.587 ± 0.032
90 | QYSLGLGQVQVI | 0.662 ± 0.033
91 | RAAATTELAARF | 0.697 ± 0.041
92 | RAACALSRRGLM | 0.926 ± 0.1

Row | Sequence | protein stability index
93 | RAAIPAHPFVSR | 0.676 ± 0.027
94 | RACLKSRCIAMG | 0.604 ± 0.065
95 | RACWGKSTGGEW | 0.723 ± 0.0083
96 | RADLHGFPHRCP | 0.76 ± 0.024
97 | RAGGSANVLAGE | 0.6926 ± 0.0016
98 | RAKNRFKRQGEN | 0.667 ± 0.023
99 | RAPFEGLRCRTG | 0.66 ± 0.033
100 | RAPPPATLPPLQ | 0.661 ± 0.086
101 | RARARSVLGRRD | 0.672 ± 0.0091
102 | RAREFRSRNIGD | 0.74 ± 0.0058
103 | RASPVSSFSPPS | 0.679 ± 0.041
104 | RATMFFLFPMFP | 0.622 ± 0.024
105 | RAVESPDKSSCE | 0.664 ± 0.11
106 | RAVPLLPRVLFW | 0.6819 ± 0.0047
107 | RCACLSCSFLLQ | 0.679 ± 0.017
108 | RCALATTNHPRS | 0.718 ± 0.056
109 | RCHIPGRIVKTR | 0.628 ± 0.046
110 | RCKYLPSSRGMI | 0.675 ± 0.011
111 | RCLSVLGLFVGW | 0.634 ± 0.033
112 | RCNFHILEIRKY | 0.667 ± 0.0057
113 | RCRGSSWLLLCA | 0.518 ± 0.016
114 | RCRRTTFIELKL | 0.595 ± 0.048
115 | RCSYIGSAGSFF | 0.732 ± 0.024

Row | Sequence | protein stability index
116 | RCTLPLSPSCSR | 0.6604 ± 0.0037
117 | RCVLWSVLSTQV | 0.672 ± 0.042
118 | RDECLRVLAPLR | 0.726 ± 0.024
119 | RDFCLGFANTVC | 0.642 ± 0.028
120 | RDKAVAGKKGGS | 0.682 ± 0.017
121 | RDKIRMIDSYLT | 0.696 ± 0.025
122 | RDLLPPLYLPSH | 0.711 ± 0.039
123 | RDPWESLDRCYP | 0.698 ± 0.034
124 | RDTAPPPPPALL | 0.788 ± 0.08
125 | REGSIISYPASG | 0.6989 ± 0.0019
126 | RENGKIIKKRKK | 0.694 ± 0.026
127 | RERVQYICYERR | 0.695 ± 0.086
128 | RERVVSVKLGGG | 0.688 ± 0.018
129 | RETSRNCGKVST | 0.745 ± 0.043
130 | REWGWGALVMWG | 0.638 ± 0.042
131 | RFGGSGGLPGGW | 0.665 ± 0.031
132 | RFGLRVLGGACR | 0.591 ± 0.071
133 | RFGSGKCLALRG | 0.689 ± 0.066
134 | RFGSLKWGRGCI | 0.6759 ± 0.0044
135 | RFKCVKPPLPRR | 0.715 ± 0.03
136 | RFLDVSRYAGGV | 0.705 ± 0.025
137 | RFLISYFYKVIR | 0.56 ± 0.034
138 | RFQWAFMSWSEP | 0.823 ± 0.064

Row | Sequence | protein stability index
139 | RFRCGLPMQERT | 0.689 ± 0.064
140 | RFRGYWSWGMTL | 0.777 ± 0.13
141 | RFVAFDFLGISL | 0.736 ± 0.2
142 | RFVHCRRKVAKR | 0.667 ± 0.047
143 | RFWDMGGYAGGL | 0.733 ± 0.079
144 | RGALQQLREHTS | 0.687 ± 0.055
145 | RGASLFPTPLAF | 0.742 ± 0.043
146 | RGCCSVAFRCVV | 0.712 ± 0.066
147 | RGEHKDYFYVMT | 0.651 ± 0.0076
148 | RGEMGLAPTGGD | 0.651 ± 0.044
149 | RGFCGGLWRPGV | 0.769 ± 0.013
150 | RGGDIEVPSDQN | 0.705 ± 0.019
151 | RGGGCNGVSVEG | 0.6899 ± 0.0027
152 | RGGGGGGSRTGA | 0.706 ± 0.026
153 | RGGGGGVECRVG | 0.655 ± 0.075
154 | RGGGGPGWGSRG | 0.684 ± 0.025
155 | RGGGRRAWVWGG | 0.675 ± 0.036
156 | RGGGVWGKEDSQ | 0.717 ± 0.052
157 | RGGLDQVHKGFR | 0.711 ± 0.086
158 | RGGSGGRKCLGV | 0.687 ± 0.0094
159 | RGGSGGSCMRYV | 0.678 ± 0.066
160 | RGGTGGWKGVWV | 0.71 ± 0.022
